Positions count from the first letter of the chain named.
How the values were obtained:
[1] = molecular target: T1, Human Neutrophil Elastase (human, UniProt P08246); assay: display phage on hNE beads, extended pH fractionation
Excerpt: We characterized the binding properties to hNE-beads of MA-BITI and MA-BITI-E7 display phage using the extended pH fractionation procedure described in U.S. Pat. No. 5,223,409.

[2] = molecular target: T1, Human Neutrophil Elastase; assay: display phage eluted from hNE beads, normalized to MA-EpiNE7 in a concurrent elution
[3] = molecular target: T1, Human Neutrophil Elastase; assay: estimated for the free domain from display phage binding to and elution from hNE beads
[4] = molecular target: T1, Human Neutrophil Elastase; assay: pH elution of display phage from hNE beads, extended protocol
Excerpt: (§1) Total pfu applied to the beads are in column two. The fractions of this input pfu recovered in each pH fraction of the abbreviated pH elution protocol (pH 7.0, pH 3.5, and pH 2.0) are in the next three columns. For data obtained using the extended pH elution protocol, the pH 3.5 listing represents the sum of the fractions of input recovered in the pH 6.0, pH 5.5, pH 5.0, pH 4.5, pH 4.0, and pH 3.5 elution samples. The pH 2.0 listing is the sum of the fractions of input obtained from the pH 3.0, pH 2.5, and pH 2.0 elution samples. The total fraction of input pfu obtained throughout the pH elution protocol is in the sixth column. The final column of the table lists the total fraction of input pfu recovered, normalized to the value obtained for MA-BITI-E7-141 phage.

[5] = molecular target: T1, Human Neutrophil Elastase; assay: pH elution of display phage from hNE beads, abbreviated protocol
Excerpt: as §1

Human Serum Thrombin = Human Serum Thrombin (human, UniProt P00734); assay: enzyme inhibition assay; limit on the assumption of less than 10% inhibition at the highest concentration tested
Human Urine Urokinase = Human Urine Urokinase (human, UniProt P00749); assay: as above
Human Serum Plasmin = Human Serum Plasmin (human, UniProt P00747); assay: as above
Human Plasma Factor Xa = Human Plasma Factor Xa (human, UniProt P00742); assay: as above
Human Serum Kallikrein = Human Serum Kallikrein (human, UniProt P03952); assay: as above
[6] = molecular target: T1, Human Neutrophil Elastase; assay: progressive inhibition of hNE substrate hydrolysis after addition of inhibitor
Experimental: The kinetic on-rates for the inhibitors reacting with hNE (kₒₙ) were determined from measurements of progressive inhibition of substrate hydrolytic activity by hNE following addition of inhibitor. For these experiments, a known concentration of inhibitor was added to a solution of hNE (0.847 nM) and substrate (25 μM) in 2 ml of reaction buffer in a plastic fluorescence cuvette. The change in fluorescence was recorded continuously following addition of the inhibitor. […] The enzymatic rate at selected times following addition of the inhibitor was determined from the slope of the tangent to the fluorescence time course at that time.
The kinetic constant kₒₙ for EPI-HNE-2 reacting with hNE was determined as follows. EPI-HNE-2 at 1.3 nM was added to buffer containing 0.867 nM hNE (I:E=1.5:1) at time 0.

[7] = molecular target: T1, Human Neutrophil Elastase; assay: calculated by the filing from koff = KD × kon
Excerpt: […] […] B. Specificity.

[8] = molecular target: T1, Human Neutrophil Elastase; assay: enzyme inhibition assay
Experimental: (§2) Inhibition constants for the proteins reacting with hNE (Kᵢ) were determined using RT measurements of hydrolysis of a fluorogenic substrate (N-methoxysuccinyl-Ala-Ala-Pro-Val-7-amino-4-methylcoumarin, Sigma M-9771) by hNE. […] The reactions were incubated at RT for 30 minutes. At the end of the incubation period, the fluorogenic substrate was added at a concentration of 25 μM and the time course for increase in fluorescence at 470 nm (excitation at 380 nm) due to enzymatic substrate cleavage was recorded using a spectrofluorimeter (Perkin-Elmer 650-15) and strip chart recorder. […] Kᵢ is related to Kₐₚₚₐᵣₑₙₜ by Kᵢ=Kₐₚₚₐᵣₑₙₜ×(1/(1+(S₀/Kₘ))). The correction is small compared to the possible errors in Kₐₚₚₐᵣₑₙₜ. Rates of enzymatic substrate cleavage were determined from the linear slopes of the recorded increases in fluorescence.
(§3) We recorded data used to determine Kᵢ for EPI-HNE-2 and EPI-HNE-3 reacting with hNE. Data obtained as described above are recorded as percent residual activity plotted as a function of added inhibitor. […] From the data, Kᵢ values for EPI-HNE-2 and for EPI-HNE-3 reacting with hNE at RT were calculated to be 4.8 pM and 6.2 pM, respectively.

[9] = molecular target: T1, Human Neutrophil Elastase; assay: inhibition of hNE hydrolysis of a fluorogenic substrate, [hNE] = 8.47 × 10^-10 molar
Experimental: as §2, §3

[10] = molecular target: Human Pancreatic Chymotrypsin (human, UniProt P17538); assay: enzyme inhibition assay; said to be probably not specific
[11] = molecular target: T1, Human Neutrophil Elastase; assay: abbreviated fractionation of display phage on hNE beads
Experimental: To test if ITI-D1E7-display phage bind hNE beads, pH elution profiles were measured. Aliquots of EpiNE-7, MA-ITI-D1, and MA-ITI-D1E7 display phage were incubated with hNE beads for three hours at room temperature (RT). The beads were washed and phage were eluted as described in U.S. Pat. No. 5,223,409, except that only three pH elutions were performed.

B1: MA-BITI display phage (designed binder)
chain: RPDFCQLGYSAGPCMGMTSRYFYNGTSMACETFQYGGCMGNGNNFVTEKDCLQTCRGA
[1]
  SUM, fraction of input from all pH elution fractions: 3.9e-05 fraction of input
  SUM, total pfu from all pH elution fractions: 800000 pfu
  pfu eluted at pH 2.0: 7700 pfu
  pfu eluted at pH 2.5: 22000 pfu
  pfu eluted at pH 3.0: 22000 pfu
  pfu eluted at pH 3.5: 86000 pfu
  pfu eluted at pH 4.0: 31000 pfu
  pfu eluted at pH 4.5: 44000 pfu
  pfu eluted at pH 5.0: 96000 pfu
  pfu eluted at pH 6.0: 250000 pfu
  pfu eluted at pH 7.0: 240000 pfu
  pfu/Input eluted at pH 2.0: 3.8e-07 fraction of input
  pfu/Input eluted at pH 2.5: 1.1e-06 fraction of input
  pfu/Input eluted at pH 3.0: 1.1e-06 fraction of input
  pfu/Input eluted at pH 3.5: 4.3e-06 fraction of input
  pfu/Input eluted at pH 4.0: 1.6e-06 fraction of input
  pfu/Input eluted at pH 4.5: 2.2e-06 fraction of input
  pfu/Input eluted at pH 5.0: 4.8e-06 fraction of input
  pfu/Input eluted at pH 6.0: 1.2e-05 fraction of input
  pfu/Input eluted at pH 7.0: 1.2e-05 fraction of input
[2]
  Normalized fraction of input (relative to recovered MA-EpiNE7): 0.018 ratio

B2: MUTT26A display phage (designed binder)
chain: B1 chain with M15V, G16A, T18F, S19P, T26A, E31Q, Q34V
[3]
  Estimated KD: < 0.01 nM
[4]
  Fraction of Input recovered at pH2.0: 0.00033 fraction of input
  Fraction of Input recovered at pH3.5: 0.0019 fraction of input
  Fraction of Input recovered at pH7.0: 0.00025 fraction of input
  Recovery Relative to BITI-E7-141: 0.96 ratio
  Recovery, Total fraction of input: 0.0025 fraction of input

B3: MA-BITI-E7-1222 display phage (designed binder)
chain: B1 chain with A11T, M15V, G16A, T18F, S19P
[4]
  Fraction of Input recovered at pH2.0: 6.4e-05 fraction of input
  Fraction of Input recovered at pH3.5: 0.0004 fraction of input
  Fraction of Input recovered at pH7.0: 7.2e-05 fraction of input
  Recovery Relative to BITI-E7-141: 0.21 ratio
  Recovery, Total fraction of input: 0.00054 fraction of input

B4: MA-BITI-E7 display phage (designed binder)
chain: B1 chain with M15V, G16A, T18F, S19P
[1]
  SUM, fraction of input from all pH elution fractions: 0.00029 fraction of input
  SUM, total pfu from all pH elution fractions: 1.8e+06 pfu
  pfu eluted at pH 2.0: 8700 pfu
  pfu eluted at pH 2.5: 23000 pfu
  pfu eluted at pH 3.0: 89000 pfu
  pfu eluted at pH 3.5: 90000 pfu
  pfu eluted at pH 4.0: 240000 pfu
  pfu eluted at pH 4.5: 380000 pfu
  pfu eluted at pH 5.0: 370000 pfu
  pfu eluted at pH 6.0: 280000 pfu
  pfu eluted at pH 7.0: 280000 pfu
  pfu/Input eluted at pH 2.0: 1.4e-06 fraction of input
  pfu/Input eluted at pH 2.5: 3.8e-06 fraction of input
  pfu/Input eluted at pH 3.0: 1.5e-05 fraction of input
  pfu/Input eluted at pH 3.5: 1.5e-05 fraction of input
  pfu/Input eluted at pH 4.0: 4e-05 fraction of input
  pfu/Input eluted at pH 4.5: 6.3e-05 fraction of input
  pfu/Input eluted at pH 5.0: 6.2e-05 fraction of input
  pfu/Input eluted at pH 6.0: 4.7e-05 fraction of input
  pfu/Input eluted at pH 7.0: 4.7e-05 fraction of input
[2]
  Normalized fraction of input (relative to recovered MA-EpiNE7): 0.13 ratio

B5: MUTP1 display phage (designed binder)
chain: B1 chain with M15I, T18F
[5]
  Fraction of Input recovered at pH2.0: 0.00012 fraction of input
  Fraction of Input recovered at pH3.5: 0.00092 fraction of input
  Fraction of Input recovered at pH7.0: 0.00018 fraction of input
  Recovery Relative to BITI-E7-141: 0.46 ratio
  Recovery, Total fraction of input: 0.0012 fraction of input

B6: MUT1619 display phage (designed binder)
chain: B1 chain with M15V, T18F, E31Q, Q34V
[3]
  Estimated KD: < 0.01 nM
[4]
  Fraction of Input recovered at pH2.0: 8.4e-05 fraction of input
  Fraction of Input recovered at pH3.5: 0.00099 fraction of input
  Fraction of Input recovered at pH7.0: 8.2e-05 fraction of input
  Recovery Relative to BITI-E7-141: 0.46 ratio
  Recovery, Total fraction of input: 0.0012 fraction of input

B7: MA-BITI-E7-141 display phage (designed binder)
chain: B1 chain with M15V, G16A, T18F, S19P, E31Q, Q34V
[1]
  fold increase in total fraction of input eluted, relative to parental MA-BITI-E7: 10 fold
[3]
  Estimated KD: < 0.01 nM
[4]
  Fraction of Input recovered at pH2.0: 0.00032 fraction of input
  Fraction of Input recovered at pH3.5: 0.0021 fraction of input
  Fraction of Input recovered at pH7.0: 0.00021 fraction of input
  Recovery Relative to BITI-E7-141: 1 ratio
  Recovery, Total fraction of input: 0.0026 fraction of input
[5]
  Fraction of Input recovered at pH2.0: 0.00054 fraction of input
  Fraction of Input recovered at pH3.5: 0.0018 fraction of input
  Fraction of Input recovered at pH7.0: 0.00022 fraction of input
  Recovery Relative to BITI-E7-141: 1 ratio
  Recovery, Total fraction of input: 0.0026 fraction of input

B8: MUTQE display phage (designed binder)
chain: B1 chain with M15V, G16A, T18F, S19P, Q34V
[3]
  Estimated KD: < 0.01 nM
[5]
  Fraction of Input recovered at pH2.0: 0.00053 fraction of input
  Fraction of Input recovered at pH3.5: 0.0016 fraction of input
  Fraction of Input recovered at pH7.0: 0.00012 fraction of input
  Recovery Relative to BITI-E7-141: 0.85 ratio
  Recovery, Total fraction of input: 0.0022 fraction of input

B9: EPI-HNE-4 (designed binder)
chain: EACNLPIVRGPCIAFFPRWAFDAVKGKCVLFPYGGCQGNGNKFYSEKECREYCGVP
Human Serum Thrombin
  Ki: > 90000 nM
Human Urine Urokinase
  Ki: > 90000 nM
Human Serum Plasmin
  Ki: > 90000 nM
Human Plasma Factor Xa
  Ki: > 90000 nM
Human Serum Kallikrein
  Ki: > 90000 nM
[6]
  kon: 1.06e+07 M⁻¹ s⁻¹
[7]
  koff: 4.9e-05 s⁻¹
[8]
  Ki: 0.005 nM
[9]
  Kd: 0.0046 nM
[10]
  Ki: ~10000 nM

B10: MA-ITI-D1 display phage (other)
chain: KEDSCQLGYSAGPCMGMTSRYFYNGTSMACETFQYGGCMGNGNNFVTEKDCLQTCRTVGA
[11]
  SUM, total fraction of input from all pH elution fractions: 1.4e-05 fraction of input
  fraction of input eluted at pH 2.0: 1e-06 fraction of input
  fraction of input eluted at pH 3.5: 3e-06 fraction of input
  fraction of input eluted at pH 7.0: 1e-05 fraction of input
  fraction of input in Wash: 1e-05 fraction of input
[2]
  Normalized fraction of input (relative to recovered MA-EpiNE7): 0.0067 ratio

From US20060134087A1, “ITI-D1 Kunitz domain mutants as hNE inhibitors” (Dyax Corp., published 2006)
